Common to all, as to assay: SPR
Assay [1] addresses VRC01 co‐expressed with human β1,4‐galactosyltransferase in the ΔXT/FT plant line (VRC01Gal) (human).
The target in assay [2] is VRC01 expressed transiently in WT N. benthamiana (VRC01WT) (human).
The target of assay [3] is VRC01 expressed in the ΔXT/FT N. benthamiana plant line (VRC01ΔXF) (human).
Assay [4] has as its target VRC01 antibody derived from HEK cells (VRC01HEK) (human).

A value given as a limit tells only on which side of the number the result lay.

Sequence of VRC01 co‐expressed with human β1,4‐galactosyltransferase in the ΔXT/FT plant line (VRC01Gal) (human) (light, as listed by the source, chain 2 of 2, other chains not shown): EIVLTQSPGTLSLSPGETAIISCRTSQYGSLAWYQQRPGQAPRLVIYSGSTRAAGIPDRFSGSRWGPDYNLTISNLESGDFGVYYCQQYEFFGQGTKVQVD
Sequence of VRC01 expressed in the ΔXT/FT N. benthamiana plant line (VRC01ΔXF) (human) (light, as listed by the source, chain 2 of 2, other chains not shown): as above
Sequence of VRC01 antibody derived from HEK cells (VRC01HEK) (human) (light, as listed by the source, chain 2 of 2, other chains not shown): as above
Sequence of VRC01 expressed transiently in WT N. benthamiana (VRC01WT) (human) (light, as listed by the source, chain 2 of 2, other chains not shown): as above

B1: recombinant human FcγRIIa ectodomain, polymorphic variant R131 (receptor)
chain: QAAAPPKAVLKLEPPWINVLQEDSVTLTCQGARSPESDSIQWFHNGNLIPTHTQPSYRFKANNNDSGEYTCQTGQTSLSDPVHLTVLSEWLVLQTPHLEFQEGETIMLRCHSWKDKPLVKVTFFQNGKSQKFSRLDPTFSIPQANHSHSGDYHCTGNIGYTLFSSKPVTITVQVPSMGSSSPMG
modifications: not checked
Regarding B1, the equilibrium dissociation constant (Kd) in assay [1] is 1500 nM; in assay [2], over 7000 nM; in assay [3] it was 780 nM; in assay [4], 937 nM.

The values above are taken from publication PMC6953194.
